Test results reported in patent US20240262917A1, “ANTIBODIES AGAINST ALK AND METHODS OF USE THEREOF” (Dana-Farber Cancer Institute, Inc., priority 2021, published 2024).
“Also recorded” adds a separate entry of the source.

Key:
Type in all cases: binding
ALK receptor = target: T1, ALK receptor (Homo sapiens, UniProt Q9UM73, F1174L); assay: Immunofluorescence detection of ALK
T1 construct: expressed in transfected cells; host or cells: SHEP neuroblastoma cells
From the text: (A) IF images (40×) of NGP neuroblastoma cells expressing wild type ALK stained with the 8G7 antibody. A 1:100 antibody dilution was used. […] The last plasmid serves as a negative control similar to NIH3T3-MSCV cells in which the vector only is expressed.
Immunofluorescence detection of ALK with 8G7 and 7F7 antibodies in SHEP NB cells engineered to express the ALKF1174L mutation. Staining with the M13 antibody obtained from the Vigny laboratory under an MTA is shown for comparison (Moog-Lutz et al, 2005). Cells expressing the vector only (SHEP) were used as controls. Cells were stained with a 1:100 dilution of antibody. Images were captured at 40× with a Zeiss AXIO Imager Z1 fluorescence microscope.
Cells (0.5×10^6 per well) were seeded into six-well plates and grown on glass coverslips for 24 hr. before fixation in 4% paraformaldehyde in PBS for 15 min at room temperature (RT), washed with PBS, permeabilized in 0.1% Triton X-100, and blocked with PBS containing 0.05% Tween-20 and 5% BSA for 1 hr. to block nonspecific binding. Then, cells were incubated with the 8G7 antibody (1:100) overnight at 4° C. After washing with PBS, cells were incubated with AlexaFluor 568-conjugated secondary antibody for 1 hr. at 25° C. Images were collected on a Zeiss AXIO Imager Z1 fluorescence microscope. […] After 24 hours, cells were washed once in PBS, fixed in 4% paraformaldehyde in PBS, washed, permeabilized in 0.1% Triton X-100, and blocked in PBS containing 10% horse serum. […] The next day, cells were washed, incubated in goat anti-rabbit IgG secondary antibody (1:1000) for 1 hr. washed, and incubated in Streptavidin-TexasRed (1:1000) for 1 hr. Cover slips were mounted onto slides using mounting medium containing DAPI. Images were collected on a Zeiss AXIO Imager Z1 fluorescence microscope.

full-length ALK receptor = target: T2, full-length ALK receptor (Homo sapiens, UniProt Q9UM73); assay: Immunoprecipitation of ALK from neuroblastoma cell lysates; settings: immunoblotting with commercial anti-ALK C-terminal antibody
T2 construct: endogenous in cells
From the text: Cell lysates from the indicated neuroblastoma cell lines were subjected to immunoprecipitation (IP) using 8G7 and subsequently to immunoblotting analysis using the commercial anti-ALK C-terminal antibody.

[1] = target: T3, ALK extracellular fragment (Homo sapiens, UniProt Q9UM73); assay: Sandwich ELISA of shed ALK ECD in patient sera; settings: sera of patients with ALK-expressing neuroblastoma
T3 construct: conditioned media containing the shed ALK (ALK 1-654) ECD fragment; from tissue; host or cells: serum of neuroblastoma patients
From the text: Detection of the purified ALK-ECD protein using 8G7 (detection) and 7F7 (capture) anti-ALK antibodies by sandwich ELISA. (A) Standard curve showing the gradual increase in signal with increasing concentrations of the ALK-ECD protein in the media of NGP cells that express cleaved ALK. Quantification is shown below. (B) ELISA of the shed ALK ECD protein in sera from patients with neuroblastoma. Ample diluent buffer was used to dilute the serum samples, Media represents Dulbecco's Modified Eagle media in which human embryonic kidney 293T cells were grown, 293T media, conditioned media from 293T cells; ALK ECD 293T media, media collected from 293T cells in which the ALK-ECD-mFc protein was overexpressed.
We developed a sandwich ELISA technique where two ALK antibodies (for example, 5H3 or 7F7) can be used to capture the ALK extracellular fragment (antigen), and another antibody, such as the 8G7 antibody, can be used to detect the captured ALK extracellular fragment-5H3 or 7F7 complex. The different epitope binding sites of these antibodies on the ALK extracellular fragment protein allow for the development of the sandwich ELISA technique for the detection of the cleaved or shed ALK extracellular fragment in patient serum samples (FIG. 18). […]

T1 sequence (Q9UM73 19-1620 F1174L): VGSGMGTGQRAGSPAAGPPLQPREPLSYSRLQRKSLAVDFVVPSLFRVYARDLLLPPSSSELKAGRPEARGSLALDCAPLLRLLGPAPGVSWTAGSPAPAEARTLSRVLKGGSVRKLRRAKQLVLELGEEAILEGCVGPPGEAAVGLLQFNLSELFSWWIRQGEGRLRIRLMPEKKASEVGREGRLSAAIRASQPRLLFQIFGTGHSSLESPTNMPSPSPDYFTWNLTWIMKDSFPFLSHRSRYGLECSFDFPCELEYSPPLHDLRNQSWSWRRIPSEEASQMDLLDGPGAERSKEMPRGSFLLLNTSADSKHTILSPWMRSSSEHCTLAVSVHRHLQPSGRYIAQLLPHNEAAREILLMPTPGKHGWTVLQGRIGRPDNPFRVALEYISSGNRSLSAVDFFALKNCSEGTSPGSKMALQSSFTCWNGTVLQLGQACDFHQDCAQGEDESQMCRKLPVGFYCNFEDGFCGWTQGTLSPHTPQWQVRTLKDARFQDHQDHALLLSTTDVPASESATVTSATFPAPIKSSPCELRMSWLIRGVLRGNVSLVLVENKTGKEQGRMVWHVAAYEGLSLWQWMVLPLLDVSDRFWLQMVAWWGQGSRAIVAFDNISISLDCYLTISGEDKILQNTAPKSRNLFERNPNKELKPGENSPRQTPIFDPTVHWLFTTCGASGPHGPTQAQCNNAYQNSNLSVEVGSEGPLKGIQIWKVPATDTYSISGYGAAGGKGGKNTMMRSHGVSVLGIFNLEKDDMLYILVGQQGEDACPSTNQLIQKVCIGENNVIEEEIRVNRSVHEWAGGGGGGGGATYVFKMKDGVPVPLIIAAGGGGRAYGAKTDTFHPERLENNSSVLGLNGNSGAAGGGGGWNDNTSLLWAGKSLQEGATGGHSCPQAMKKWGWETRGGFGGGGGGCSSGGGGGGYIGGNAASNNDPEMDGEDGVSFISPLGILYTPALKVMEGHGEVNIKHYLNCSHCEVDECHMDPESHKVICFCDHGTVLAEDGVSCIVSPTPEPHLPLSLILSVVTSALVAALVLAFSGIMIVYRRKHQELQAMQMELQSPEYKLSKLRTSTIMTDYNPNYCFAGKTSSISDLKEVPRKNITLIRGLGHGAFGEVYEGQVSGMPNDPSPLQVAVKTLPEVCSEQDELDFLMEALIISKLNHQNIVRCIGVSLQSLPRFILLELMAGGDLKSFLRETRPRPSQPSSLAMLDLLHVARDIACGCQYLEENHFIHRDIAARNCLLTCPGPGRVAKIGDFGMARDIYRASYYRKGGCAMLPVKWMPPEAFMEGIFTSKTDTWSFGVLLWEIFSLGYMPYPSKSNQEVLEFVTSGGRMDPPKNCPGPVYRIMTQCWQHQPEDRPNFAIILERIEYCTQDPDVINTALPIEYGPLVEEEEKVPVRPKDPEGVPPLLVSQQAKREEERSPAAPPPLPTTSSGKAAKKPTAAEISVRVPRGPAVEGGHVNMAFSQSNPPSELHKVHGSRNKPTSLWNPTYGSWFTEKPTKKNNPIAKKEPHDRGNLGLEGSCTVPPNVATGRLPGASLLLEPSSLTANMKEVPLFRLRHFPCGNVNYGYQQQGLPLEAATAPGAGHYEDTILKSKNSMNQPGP
T2 sequence (Q9UM73 19-1620): as the sequence (Q9UM73 19-1620 F1174L) above, with L1156F counted along it
T3 sequence (Q9UM73 19-654): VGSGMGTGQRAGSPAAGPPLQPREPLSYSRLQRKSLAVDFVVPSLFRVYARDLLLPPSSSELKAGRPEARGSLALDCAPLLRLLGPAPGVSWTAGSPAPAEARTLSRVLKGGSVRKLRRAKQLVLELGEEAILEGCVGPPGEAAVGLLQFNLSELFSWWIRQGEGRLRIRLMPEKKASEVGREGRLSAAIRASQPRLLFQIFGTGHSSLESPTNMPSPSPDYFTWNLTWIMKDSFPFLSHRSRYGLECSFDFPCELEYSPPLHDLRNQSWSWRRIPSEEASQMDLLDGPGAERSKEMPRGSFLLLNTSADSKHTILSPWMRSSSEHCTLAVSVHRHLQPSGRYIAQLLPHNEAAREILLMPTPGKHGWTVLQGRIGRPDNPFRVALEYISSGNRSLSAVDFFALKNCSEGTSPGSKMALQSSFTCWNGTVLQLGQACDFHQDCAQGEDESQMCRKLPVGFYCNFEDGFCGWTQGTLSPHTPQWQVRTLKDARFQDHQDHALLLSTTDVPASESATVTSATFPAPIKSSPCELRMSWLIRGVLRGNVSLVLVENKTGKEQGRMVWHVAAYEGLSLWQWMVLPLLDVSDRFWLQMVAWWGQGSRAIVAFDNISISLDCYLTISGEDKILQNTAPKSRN

recognition of ALK lacking the majority of the ECD in immunofluorescence (ALK receptor; NIH3T3-ALK-del MAM2 to 654 aa, negative control): not recognized
B1: 8G7: murine monoclonal IgG1 anti-ALK antibody to the N-terminal ECD of human ALK; VH SEQ ID NO: 3, VL SEQ ID NO: 4 (antibody, V domains shown)
VH: QVQLQQSGAELVRPGASVTLSCKASGYTFTDYEMHWVKQTPVHGLEWIGAIDPETGGSAYNQKFKAKAILTADRSSSTAYMELRSLTSEDSAVYYCTRTRYYGSSPAMDYWGQGTSVTVSS
VL: DIQMTQTTSSLSASLGDRVTISCSASQGIGNYLNWYQQKPDGTVKLLIYYTSSLHSGVPSRFSGSGSGTDYSLTISNLEPEDIATYYCQQYSKLPYTFGGGTKLEIK
binding to the ALK receptor in immunofluorescence (ALK receptor; SHEP NB cells engineered to express the ALKF1174L mutation, 1:100 dilution of antibody): bind to the ALK receptor in immunofluorescence assays
recognition of ALK at the cell surface (ALK receptor; immunofluorescence, immunocytochemistry and immunohistochemistry): recognize ALK at the cell surface by immunofluorescence, immunocytochemistry and immunohistochemistry
immunoprecipitation of ALK (full-length ALK receptor): can immunoprecipitate ALK; also recorded: immunoprecipitated only the full-length 220 kDa form of ALK
recognition of circulating ALK extracellular fragment in sera [1]: recognize the circulating ALK extracellular fragment in the sera of patients with ALK-expressing neuroblastoma
